{
  "source": "paper doi:10.1101/2025.10.15.682582",
  "about": "“A recombinant norrin-derived growth factor retains the complete multifunctionality of human norrin” (bioRxiv, 2025)",
  "binders": {"B1": {"name": "human recombinant norrin (ligand, UniProt Q00604 25-133, looked up)", "chain": "KTDSSFIMDSDPRRCMRHHYVDSISHPLYKCSSKMVLLARCEGHCSQASRSEPLVSFSTVLKQPFRSSCHCCRPQTSKLKALRLRCSGGMRLTATYRYILSCHCEECNS"}},
  "target": "T1, rhFrizzled-4/FC Chimera (human, UniProt Q9ULV1 37-212)",
  "T1 sequence (looked up)": "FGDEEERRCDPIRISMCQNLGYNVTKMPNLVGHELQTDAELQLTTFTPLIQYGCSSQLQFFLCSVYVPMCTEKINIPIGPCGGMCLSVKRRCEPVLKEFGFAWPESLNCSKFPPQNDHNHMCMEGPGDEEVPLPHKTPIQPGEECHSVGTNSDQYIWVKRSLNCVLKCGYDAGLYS",
  "assay": "cell-based or functional assay",
  "data": [
    {"binder": "B1", "values": [
      {"measurement": "TCF/LEF firefly luciferase reporter in HEK-293 cells transfected with FZD4 and LRP5; average EC50 of 3 assays with human norrin", "result": 0.036, "unit": "µg/mL"}
    ]}
  ]
}
